The values below come from a protein production outcome set (Wang et al. 2014).

A short description of this data set: label from the status in PepcDB records.
In the case of “MLITSSLLPPSGTWIFNINSLFCSLSIKNALSNLPLMRFCNSSTTQHTSTLVISLFIISPENIIFFFRIFYYCDNMEREEFLKYLRQGKYDKLAKLINSYSDILSFLDELFTSNKKDDVRRALLVLKRLDNEVIERYLYYILLNLNEKRIIAKEAEEILKKITNKESVEEAILEIAKKPLDEKIVYLFLQNMKEGNIFFRAILEHTKSKNMEESIKILLKNYNSEMILKILANKLYSSEKDERELTINILLNIVDSLTDEQKNILRGHLSVSLLGDEDKKLYRKFKQLFEKLDIPAELSDEQIKSLLKSHGKTTLNIILRENIKLPANFYNREFLKDFLYTGDEEKQFVGVKLISLKKDSKKKVDLLFRFLNYGYGKAKTAAIRELKKIAQNNNELKKYIENKTLMYAKKMNLGLKISSLRILKEFAKKEHLEFLINEHKRLKELVYKLEEEKFMGGFRHLLMMEEEIRKCNVAMRLIEEIVAEICLKNDIHYNDLKISEKLGYEFYRTMELIGVKNLNLIDIHEFLEDVKRDGELITYLSGIVINNNKIDDNLAKKILEVTEKAEMEDKDVLNANKIMIYASLNRVDKIGEIINMAEGYYSKLAFINGVKKFIDEKLLDEEKINLLIPKIAEMIYSTKKLRLMALEFFKNYPNELVLPILINEIGNYRGEDKLMIDVISNVIFKYPNNIHSIRELLNTDKRNSALKILLKVSEKRPELLEDFIYLLAGMYSSANEEDKKLIKKILKNITTEEQKLILKPIIGDL”, the protein production result is on record as “failed”. With “MSQPLNVAVVGATGSVGEALVGLLDERDFPLHRLHLLASAESAGQRMGFAESSLRVGDVDSFDFSSVGLAFFAAAAEVSRAHAERARAAGCSVIDLSGALEPSVAPPVMVSVNAERLASQAAPFLLSSPCAVAAELCEVLAPLLATLDCRQLNLTACLSVSSLGREGVKELARQTAELLNARPLEPRLFDRQIAFNLLAQVGAVDAEGHSAIERRIFAEVQALLGERIGPLNVTCIQAPVFFGDSLSVTLQCAEPVDLAAVTRVLDATKGIEWVGEGDYPTVVGDALGQDETYVGRVRAGQADPCQVNLWIVSDNVRKGAALNAVLLGELLIKHYL”, the protein production entry is “not failed”. For the sequence “SGMLERLPLCGKAFADMMGKVDVWKWCNLSEFIVYYESFTNCTEMEANVVGCYWPNPLAQGFITGIHRQFFSNCTVDRVHLEDPPDEVLIPLIVIPVVLTVAMAGLVVWRSKRTDTLL”, the protein production result was “failed”. As for “MNPTAGKTSATGEQMASTSADTYSPSRDDFAAMLDESFAGGNLQESSVVKGKVVAIEKDMAVIDVGLKTEGRVALREFSGPGRDSEIKVGDEVEVFLDRIENALGEAVLSRDKARREESWGKLEKAFQNNEKVNGVIFNQVKGGFTVDLDGAVAFLPRSQVDIRPIRDVAPLMNNSQPFQILKMDRRRGNIVVSRRTVLEETRAEQRQELVQNLEEGQVIDGVVKNITDYGAFVDLGGIDGLLHVTDIAWRRVNHPTEVLSIGQTVKVKIIKINHETHRISLGMKQLLDDPWQGIEAKYPLGARFTGRVTNITDYGAFVELEPGIEGLIHVSEMSWTKKNMHPGKIVSTSQEVEVQVLEVDSVKRRISLGLKQTMRNPWEVFVEGHPTGSVVEGEVKNKTEFGLFLGLEGDVDGMVHLSDLDWKLPGEQVIDNYKKGDMVKAVVLDVDVEKERISLGIKQLEGDPFAEPGDVKKGAVVTCEVLEVKESGIEVKIAGTDFTTFIKRSELARDRNDQRAERFAVGEKVDARVIQFDKKARKVQVSIKALEVAEEKEAIAQYGSSDSGATLGDILGTALKNRDSK”, the protein production entry is reported as “failed”.

Consider “MNSEENTDSIPIDLILDILSRLPSKSIARCRCVSKLWESMIRQSYFTELFLTRSSSRPHLLIAVEQEGEWKFFSLPQPKNYLGKSSLVVAANLHLKFFEDKRPQHGCSYASSLIYFPNMTIRKKGDDHLGVICNPSTGQYGYVILPPLLDFKSVPYGKFLGFDPIDKQFKVLIPIFDFDKHQTDHHILTLGAETVGWRKIQSPLRYLPHSNGTICINGILYYLAKINYAMDKNVLVCFDVRSENFVFLRLNTYCSSTKLVNYKGKLGMINQEYVDDGGFPLKLSVWVLEDVGKEEWSTYVYTLRDDNKVDQVKYNLSVVGVTASGEIVLVKKTQTLKPFYVLYFNPDKNTLLTVEVKGLHRGLYAVHRIYAFVDHVEDLEFNIMKTTYAAKSKFSQEDRF”, for which the protein production entry is on record as “failed”. The result for “MVHQSEMENYNIGQASIEEVSDPAYKGAKIVVIGVGGGGSNMIKHLVEYGVHQDVTPIATNTDGQHLKNNPAPVKILLGKESTGGLGAGGIPDIGRKAAEESANEIKEAIKDAKLVIISTGLGGGTGTGATPTIVKIAKEVGALTIAIVTKPFKYEGNQKRKRAEEGLKELEQSSDSILVIPNDKILLTMKKNASTTECYREVDDVLVRAVSGISTIITKPGNINVDFADLKSALGFKGFALMGIGEATGEESAKLAVQNAIQSPLLDDASIEGAKSIIVFFEHHPDYPMMAYSQACDFIQDQAHQDVDVKFGQHTSDNIPIDHVRVTIIATGAERNSGGASLESIATPSQPVVKQTRKVGNGEYLKIPTEEELSIPTTMRIQQD” reads “failed”; that for “MNMKKIFKRTSLLLATALIGVTATVQAQKSPQDMDRFIDALMRRMTVEEKIGQLNLPVTGEITTGQAKSSDVAKKIEQGLVGGLFNLKGVAKIRDVQKLAVENSRLGIPLLFGMDVIHGYETIFPIPLGLSCTWDMAAIEQSARIAATEASADGISWTFSPMVDISRDPRWGRVSEGSGEDPFLGGAIARAMVLGYQGKDPDDQLKRNDEIMACVKHFALYGAGEAGRDYNTVDMSRNRMFNEYMYPYEAAVRAGVGSAMASFNEVDGVPATANHWLMTDVLRKQWGFNGFVVTDFTGISEMVEHGIGNLQTVSTRALNAGVDMDMVSEGFVGTLKKSLTEGKITMKTLDAACRRILEAKYKLGLFDDPYKYCDLSRPARDIFTREHRAAARRIAAESFVLLKNEPFEGQGKKSSRPVLPLEKQGTVAVIGPLGNTRSNMPGTWSVAARLDDYPSLYEGLKEMTASRVNITYAKGSNLISDAAYEERATLFGRSLNRDNRTDKKLLDEALKVASGADVIVAALGESSEMSGESSSRTDLGIPDVQRTLLEALLKTGKPVVLTLFTGRPLTLTWEQEHVPAILNVWFGGSEAAYAIGDVLFGDVNPSGKLTMTFPKNVGQIPLFYNHKNTGRPLAEGKWFEKFRSNYLDVDNEPLYPFGYGLSYTTFRYSDIALSTPVMGQNGSTTAVVTVTNTGKRDGAEVVQLYIRDLVGSITRPVRELKGFEKVFLKAGESKTVSFKITPELLRFYDYDLNHVAEPGDFDVMIGGSSQAEKTARLTLK”, “failed”. With “LENDRTTFRIRNLDSGEIIWSGMGAVYPVYSPSFDHAADAFAFAFSSPADPPEIHLLRDAETKSSINSHLDGVSPYPAEIVEWKAKDGEDLYGILRLIDPKNPLIVYIHGGPTSFSYASFLDRTSIYLGYGFNVFAPNYRGSVGKGRRYAELNVGDLGGKDFDDVISGIEFLKNTGKIATDR”, the protein production result is “failed”. Regarding “MSLTRDAASITPARVRAHVFRYPVSTPVKTSFGTMHDRPAVLVEVEDSDGAVGWGEVWCNFPACGAEHRARLVETVLAPLLTARAFADPAQAFAHLEARTAVLAIQTGEPGPLAQAIAGLDIALCDLAARRAGQPLWAWLGGSGDRIGVYASGINPENPEDVVARKAAEGYRAFKLKVGFDDARDVRNALHVRELLGAATPLMADANQGWDLPRARQMAQRLGPAQLDWLEEPLRADRPAAEWAELAQAAPMPLAGGENIAGVAAFETALAARSLRVMQPDLAKWGGFSGCLPVARAVVAAGLRYCPHYLGAGIGLQASAHLLAAVPGLASPGLLEVDANDNPLRSLLSPALATLHEGRITLGGAPGLGVTPDLAALRAACAAREGHHHHHH”, the protein production entry is on record as “not failed”. For the sequence “MSTTTRISTAERLGRALGRGWRAYARSERRASNWLVSKGVPLAAAAALLWAGKLAVLGLLLYVAFWLALLLVALVFVARGHDTVEWEPPEPEWRHGHAGFGLYTHDEYRIDSHDPSDET”, the protein production result is “failed”.

Turning to “MLEVHRTHRAKILNYSQVEDSLNRHGWSASKLWNVANYHSRQVWEETREIPGHEELKNELKGHDKYKGLHSQSSQRVLEELAEAFNSWYSSDDERDNPPGYRKQNYYDQQGRRVHEEHPLSTVTWKQNGIRHDTKNNRVRLSKGANHKEHPKAWEYILVEYETRPGVEVENLQQVRAVYDQTKERWELHLVCKEEIETPDAPGTETAGIDLGISNFAAVAYSTEDADLYPGNRLKQDGYYFPKEIANCDDSSGDRATRLHHKWSERRTHFFHSLAKHIVEKCIERSVGRINVGDLEGIREDENAKSKNWGRHGNLDLHGWAFDRFTSILEYKAKVEGIEVMEVSERDTSKTCCVCGREDDSQRVERGLYVCESCDAAFNADVNGAENIRLDIDEESNSESTGQLSGDRSTGWLAQPGVYLYDLSCGFQPQREVVDSKP”, the protein production result was “failed”.
